Test results taken from paper PMC3869376.

Columns and labels:
14-3-3β [1] = molecular target: 14-3-3β (UniProt P31946); assay: GST-14-3-3β pull-down from cell lysate; conditions: reference: HA-PDE3B wild type; sites S318
14-3-3β [2] = molecular target: 14-3-3β (UniProt P31946); assay: DIG-GST-14-3-3β overlay on blotted immunoprecipitated PDE3B; conditions: reference: HA-PDE3B wild type; sites S318

14-3-3β, sequence (P31946 whole entry, looked up): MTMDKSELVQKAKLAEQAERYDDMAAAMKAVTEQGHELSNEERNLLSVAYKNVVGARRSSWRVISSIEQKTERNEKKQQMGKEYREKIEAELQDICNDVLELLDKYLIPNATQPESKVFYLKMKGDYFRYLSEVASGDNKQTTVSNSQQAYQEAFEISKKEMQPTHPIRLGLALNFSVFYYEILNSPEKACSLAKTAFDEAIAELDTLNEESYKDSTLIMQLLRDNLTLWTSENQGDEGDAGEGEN

## PDE3B (phosphodiesterase 3B) (from UniProt Q13370-2) HA-PDE3B S318A
14-3-3β [1]
  binding against the reference: lost
14-3-3β [2]
  binding against the reference: lost
